The results in this text go back to patent publication US20250304677A1 (VIB VZW, published 2025).

The term EC50 denotes the concentration needed to bring the measured effect to its halfway point. One may read the koff as a measure of how fast the partners let go of each other. The Kd is the concentration at which binding is half-saturated. For orientation: kon means a measure of how fast the partners come together. As a reminder, the EC50 (read off the curve) is the concentration needed to bring the measured effect to its halfway point. Broadly, the IC50 is the concentration needed to halve the response being measured.

For test [1], the target named is T1, mouse folate receptor alpha (mFRα), recombinant protein (mouse, UniProt P35846 25-232).
T1 construct: Bought recombinant proteins (e.g. biotinylated, Acro Biosystems FO1-M82E9); also called mFOLR1; Ms FOLR1
The test can be described thus: ELISA on recombinant mouse FOLR1, cMyc tag detection, normalised binding, non-linear fit. The method, then:
(§1) Data were normalized and technical replicates were plotted as mean±SD. Data were fitted by non-linear regression and the half-maximal effective concentration ^{∘}EC50) was calculated using GraphPad Prism 9 software. ^{∘}FIG. 1C and FIG. 1D) Binding affinity determination of anti-FOLR1 VHHs for native FOLR1. Mouse ^{∘}FIG. 1C) or human FOLR1 FIG. 1D) was overexpressed on HEK293T cells and binding of the anti-FOLR1 VHHs was assessed using flow cytometry. The mean fluorescence intensity ^{∘}MFI) of the phycoerythrin signal was plotted for each VHH concentration. Data were fitted by non-linear regression using GraphPad Prism 9 software. ^{∘}FIG. 1E) Determination of the competition of representative family members with folic acid ^{∘}FA) using ELISA. Mouse FOLR1 was coated on the plate and was pre-incubated with or without 100 μM FA before adding the VHHs. Data were fitted by non-linear regression using GraphPad Prism 9 software.
(§2) In a first step, binding affinity and cross-reactivity of the purified VHHs to human and mouse FRα was assessed by ELISA, using detection of the cMyc tag ^{∘}FIG. 1A-B). […] 2HFO19 ^{∘}family 1) was the best binder of all tested VHHs to both mouse and human FRα with an EC₅₀ of 0.1 nM and 0.4 nM respectively ^{∘}FIG. 1A-B).

For test [2], the target named is T2, human folate receptor alpha expressed on cells (transfected HEK293T, HeLa, MCF7, MDA-MB-231) (human, UniProt P15328 25-234).
T2 construct: HEK293T transiently transfected with human FOLR1; also called native human FRα; cell-expressed human FOLR1
The test can be described thus: flow cytometry on HEK293T cells overexpressing human FOLR1, His tag detection, PE MFI, non-linear fit. The method, then:
as §1
In general terms: In flow cytometry, cells or beads pass a laser one at a time.

Test [3] concerns the target T3, mouse folate receptor alpha expressed on transfected HEK293T cells (mouse, UniProt P35846 25-232).
T3 construct: also called cell-expressed mouse FRα
The test can be described thus: flow cytometry on HEK293T cells overexpressing mouse FOLR1, His tag detection, PE MFI, non-linear fit. Here is the method:
as §1

The target of test [4] is T1, mouse folate receptor alpha (mFRα), …. The test can be described thus: BLI, periplasmic extract, FRα on AR2G biosensors. Here is the method:
(§3) After panning of core76/77 on human and mouse folate receptor alpha ^{∘}FRα), […] were randomly selected from the second and third rounds and analyzed by ELISA on both human and mouse FRα for the presence of FRα-specific VHHs in their periplasmic extracts ^{∘}PE). This led to the identification of 98 hits. For these 98 hits, the off-rate ^{∘}koff) in the PE was determined by biolayer interferometry ^{∘}BLI) on both mouse and human FRα that was directly immobilized onto AR2G biosensors. The off-rates were calculated using a 1:1 binding model. […] Abbreviations: SE: standard error.
(In BLI a coated tip is dipped into the sample, and binding shifts an interference pattern.)

Test [5] addresses T4, human folate receptor alpha (hFRα), recombinant protein (human, UniProt P15328 25-233).
T4 construct: Bought recombinant proteins (His-tagged, or biotinylated via Avi-tag, e.g. AcroBiosystems FO1-H82E2, F01-H52H1); also called hFOLR1; huFOLR1
As to the kind of experiment: BLI, periplasmic extract, FRα on AR2G biosensors. The method, then: as §3

Test [6] addresses T1, mouse folate receptor alpha (mFRα), …. As to the kind of experiment: ELISA, periplasmic extract.
Source text: (§4) From the lymphocytes of each llama a separate VHH library was constructed to select and screen for the presence of antigen-specific VHHs. To this end, total RNA from peripheral blood lymphocytes was used as template for first strand cDNA synthesis with an oligo ^{∘}dT) primer. Using this cDNA, the VHH encoding sequences were amplified by PCR, digested with PstI and NotI, cloned into the PstI and NotI sites of the phagemid vector pMECS and transformed into E. coli to generate VHH libraries. To enrich these libraries for FRα ^{∘}or FOLR1, as used interchangeably herein)-specific VHHs, a combinatorial panning approach on recombinant human and mouse FOLR1 was used followed by random selection and screening of clones by ELISA for the presence of antigen-specific VHHs in their periplasmic extracts ^{∘}PEs). In order to gauge the cross-reactivity for human and mouse FOLR1, each clone was tested on both antigens.
as §3
Background: In an ELISA, binding on a coated surface is turned into a signal by an enzyme label.

Test [7] addresses T4, human folate receptor alpha (hFRα), …. The test can be described thus: ELISA, periplasmic extract.
Source text: as §4, §3

Test [8] addresses T1, mouse folate receptor alpha (mFRα), …. The test can be described thus: BLI, FRα on AR2G biosensors, 1:1 model. The method, then:
(§5) As a next step, the kinetic binding constants were determined using BLI ^{∘}Table 3). […] Similar to the ELISA results ^{∘}FIG. 1A-B), higher binding affinities were measured for mouse FRα than human FRα, with KD values […] one order of magnitude in most cases. […] For 3HFO28, binding to human FRα could not be confirmed by BLI, and this VHH was excluded from further characterization.
(§6) The kinetic parameters were calculated using a 1:1 binding model.

Test [9] addresses T4, human folate receptor alpha (hFRα), …. As to the kind of experiment: BLI, FRα on AR2G biosensors, 1:1 model. The method, then:
as §5, §6

The target is the same in test [10]. The test can be described thus: ELISA on recombinant human FOLR1, cMyc tag detection, normalised binding, non-linear fit. The method, then:
as §1, §2

Test [11] concerns the target T5, human folate receptor beta (FRβ) (human, UniProt P14207 17-230, limits assumed).
T5 construct: also called hFOLR2; human FOLR2
The test can be described thus: method not named (follows the ELISA of Example 3).

In test [12] the target is T1, mouse folate receptor alpha (mFRα), …. The test can be described thus: ELISA on mouse FRα, anti-VHH detection. In short, it runs like this:
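Dose-dependent binding of VHH variants to mouse folate receptor alpha was measured by ELISA with anti-VHH detection. EC50 was read off the dose-response curve.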

Test [13] concerns the target T4, human folate receptor alpha (hFRα), …. The test can be described thus: ITC, VHH injected into 6.5 µM glycosylated human FOLR1 in PBS, room temperature, single binding site model. The source says:
(§7) To exclude the presence of a potential additional binding site mediated by the CDR4 region, we determined the stoichiometry if the humanized variant h1 2HFO42 (P01500001) and h1 2MFR67 (P01500005) interaction with human FOLR1 in isothermal titration […] (ITC) studies, using glycosylated human FOLR protein (AcroBiosystems Cat. Nr F01-H52H1). All proteins were dialysed overnight to PBS buffer and concentrated using Amicon Ultra 10 kDa cut-off centrifugal filter devices. Human FOLR1 was used at a concentration of 6.5 μM in the cell. Titrations comprised 26×1.5 μL injections of VHH into the protein, with 90 s intervals. An initial injection of ligand (0.4 μL) was made and discarded during data analysis. All data were performed at room temperature. The data were fitted to a single binding site model using the PEAQ ITC analysis software provided by the manufacturer.

Test [14] has as its target T1, mouse folate receptor alpha (mFRα), …. As to the kind of experiment: BLI, Avi-biotinylated FRα on streptavidin biosensors, VHH 100 nM. Summed up:
(§8)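 Avi-biotinylated mouse and human FRα captured on streptavidin biosensors; humanized VHH variants tested at 100 nM by biolayer interferometry. Off-rates and dissociation constants derived from 1:1 Langmuir fits.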

Test [15] addresses T4, human folate receptor alpha (hFRα), …. The description is as above. In short, it runs like this: as §8
Test [16] shares this target. The test can be described thus: competition AlphaLISA against 2MFR67-Flag3-His6 on human FRα. Here is the method:
Secondly, the variants were analysed for the capacity to compete with binding of family 3 VHH 2MFR67 to human FRα in a competition AlphaLISA, which is a homogeneous assay without wash steps. In here, human FRα biotinylated through an Avi-tag ^{∘}FO1-H82E2, AcroBiosystems) is captured on streptavidin coated Alpha Donor beads ^{∘}Perkin Elmer, Cat nr. 6760002), while the 2MFR67 is captured on anti-Flag antibody AlphaLISA acceptor beads ^{∘}Perkin Elmer, Cat nr. AL112C). Binding of 2MFR67 to the FRα leads to an energy transfer from one bead to the other, ultimately producing a fluorescent signal. To each well of white low binding 384-well microtitre plates ^{∘}F-bottom, Greiner Cat nr 781904), 5 μl of serial-diluted VHHs are mixed with 5 μl of 2.5 nM monovalent 2MFR67-Flag3-His6 and 5 μl of 15 nM biotinylated human FRα protein. After an incubation for 1 hour at room temperature, streptavidin coated Alpha Donor beads and anti-Flag AlphaLISA acceptor beads were added to a final concentration of 20 μg/mL each in a final volume of 25 μl for an incubation of 1 hour at room temperature in the dark. Interaction between beads was assessed after illumination at 680 nm and reading at 615 nm of on an Ensight instrument. Curve fitting is done in Graphpad Prism 9.0 using 4PL non-linear regression analysis.

Test [17] has the same target. As to the kind of experiment: ITC, VHH injected into 6.5 µM glycosylated human FOLR1.
Source text: as §7
Similarly, a stoichiometry of 1:1 was determined for the 2MFR67-FOLR1 interaction. When comparing the thermodynamic parameters, binding of 2MFR67 to FOLR1 comes with an entropic penalty, whereas the entropic contribution for humanised 2HFO42-FOLR1 binding is favorable. This could be a consequence of the CDR4 loop having more freedom in 2MFR67, resulting in an entropic penalty upon binding. […]

T1 sequence (P35846 25-232 limits assumed): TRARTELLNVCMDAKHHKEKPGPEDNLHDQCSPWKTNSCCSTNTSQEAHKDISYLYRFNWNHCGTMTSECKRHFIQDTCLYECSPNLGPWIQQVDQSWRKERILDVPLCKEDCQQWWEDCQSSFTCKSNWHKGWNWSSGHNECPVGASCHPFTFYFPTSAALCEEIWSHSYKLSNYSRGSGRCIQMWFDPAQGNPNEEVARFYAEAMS
T4 sequence (P15328 25-233 limits assumed): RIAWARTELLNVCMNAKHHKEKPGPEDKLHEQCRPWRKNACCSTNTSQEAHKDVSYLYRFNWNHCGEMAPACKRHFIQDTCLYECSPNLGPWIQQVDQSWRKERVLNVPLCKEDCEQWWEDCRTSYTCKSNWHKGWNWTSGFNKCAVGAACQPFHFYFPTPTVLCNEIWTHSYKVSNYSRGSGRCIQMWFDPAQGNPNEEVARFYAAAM
T3 sequence (P35846 25-232 limits assumed): as the sequence (P35846 25-232 limits assumed) above
T2 sequence (P15328 25-234 limits assumed): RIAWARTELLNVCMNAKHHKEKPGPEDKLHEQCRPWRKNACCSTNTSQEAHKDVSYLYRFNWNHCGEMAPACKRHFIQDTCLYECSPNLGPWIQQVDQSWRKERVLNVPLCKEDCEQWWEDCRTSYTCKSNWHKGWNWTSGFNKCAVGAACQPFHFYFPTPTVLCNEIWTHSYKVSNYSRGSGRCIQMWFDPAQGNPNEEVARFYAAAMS
T5 sequence (P14207 17-230 limits assumed): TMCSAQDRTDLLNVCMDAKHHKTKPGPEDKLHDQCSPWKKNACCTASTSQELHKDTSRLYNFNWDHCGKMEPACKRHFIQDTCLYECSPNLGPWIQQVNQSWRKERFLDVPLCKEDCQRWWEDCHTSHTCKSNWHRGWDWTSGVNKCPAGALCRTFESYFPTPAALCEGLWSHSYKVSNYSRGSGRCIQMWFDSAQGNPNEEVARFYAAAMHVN

B1: VHH 3HFO26 (family 1) (VHH)
VHH: QVQLQESGGGLVQPGGSLRITCVASGFPFSTYYMSWVRQAPGKGLEWVSGINSNGGVIDYADSVKGRFTISRDNAKNTLYLQLNSLKPEDTALYFCARGRAFVATMPSSLRGQGTQVTVSS
As to B1, the EC50 in [1] stood at 0.3 nM; in test [2], 7 nM; in test [3], 1.4 nM; in test [10], 20.3 nM. Besides, the koff in [4] was 0.0135 s⁻¹; in test [5], 0.0582 s⁻¹; in test [8] it was 0.0197 s⁻¹; in test [9] it was 0.182 s⁻¹. Further, the “PE-ELISA (ratio to uncoated well)” value in test [6] was 4.9; in [7], 4.8. The figures for the Kd in [8] and in test [9] were 7.86 nM and 662 nM, respectively. Also, the kon was 2.5e+06 M⁻¹ s⁻¹ in [8] and 275000 M⁻¹ s⁻¹ in test [9]. The binding result in [11] is “no binding”.

B2: P01500001 = humanised variant 1 (h1) 2HFO42-His6: 2HF042(Q1E, Q5V, A14P, V40A, L79Y, K83R, Q108L)-HIS6 (VHH)
VHH: EVQLVESGGGLVQPGGSLRLSCAASGSGFSGMIMGWYRQAPGKQRELVATVTSHGTTNYADSVKGRFTISRDNAKNTVYLQMNSLRPEDTAVYYCNAHFPGIYWGKGTLVTVSS
notes: Entry includes the tag; also called P0150001; humanised 2HFO42
B2: the “EC50 (read off the curve)” value in test [12] is roughly 4 nM. Besides, in test [13], the “-TΔS” value is -3.04 kcal/mol, the Kd was determined as 39.2 nM, the ΔG is -10.1 kcal/mol and the ΔH was -7.07 kcal/mol. Besides, in [14], the koff worked out at 0.00126 s⁻¹. In [15], the koff was 0.011 s⁻¹. In [16], the IC50 amounted to 37.3 nM. The “stoichiometry (ITC)” value in test [17] is 1.

B3: P01500005: 2MFR67(Q1E, Q5V, Q108L)-HIS6 (VHH)
VHH: EVQLVESGGGLVQAGGSLRLSCAASGSGFSGMIMGWYRQAPGKQRELVATVTSHGTTNYADSVKGRFTISREDSKNTVLLQMNSLKPEDTAVYYCNAHFPGIYWGKGTLVTVSS
notes: Entry includes the tag; also called 2MFR67 (P01500005); P0150005
B3: the “EC50 (read off the curve)” value in [12] is roughly 3 nM. Further, in test [13], the “-TΔS” value turned out to be 3.57 kcal/mol, the Kd worked out at 18.2 nM, the ΔG is -10.6 kcal/mol and the ΔH was -14.1 kcal/mol. In test [14], the koff turned out to be 0.000532 s⁻¹. Besides, the koff in test [15] was found to be 0.00353 s⁻¹. The IC50 in test [16] was 5.53 nM. Besides, the “stoichiometry (ITC)” value in test [17] amounted to 1.
